Experiment [1] deals with HGFR protein extracellular domain with the His tag (human) (UniProt P08581). As to the kind of experiment: competition ELISA, blocks bio-HGF-His on coated HGFR-His. (In an ELISA, binding on a coated surface is turned into a signal by an enzyme label.)
Experiment [2] has the same target. The experiment is described as follows: SPR Biacore T200, antibody captured on Protein A, antigen in flow, 1:1 fit. For orientation: Surface plasmon resonance follows binding to a sensor surface in real time, without labels.
The target of experiment [3] is human EGFR protein extracellular domain with the His tag (human) (UniProt P00533). The description is as above.

On to MCLA (bispecific antibody), for which, in experiment [1], the IC50 (usually the midpoint of a concentration-inhibition curve) is 1.36 µg/mL and the Max (%) stood at 94.1%. For the same substance, in experiment [2], the Kd (usually a measure of binding affinity in units of concentration) was found to be 10.3 nM; the koff (in general, the rate constant with which the complex falls apart) turned out to be 0.000303 s⁻¹; the kon (in general, the rate constant with which the complex forms) was found to be 29500 M⁻¹ s⁻¹. Moreover, in experiment [3], the Kd came out at 69.1 nM, the koff was 0.00473 s⁻¹ and the kon stood at 68500 M⁻¹ s⁻¹.

For the origin of these results see patent publication US20240352132A1.
